The values that follow come from paper PMC8571522, “siRNA screening identifies METTL9 as a histidine Nπ-methyltransferase that targets the proinflammatory protein S100A9” (The Journal of Biological Chemistry, 2021).

The target of test [1] is T1, recombinant S100A9 prepared by cleavage of GST-S100A9, after the reaction with GST-METTL9 in the absence of … (mouse, UniProt P31725 1-113).
T1 construct: S100A9, mouse; also called GST-cleaved S100A9; mS100A9; source: E. coli BL21-CodonPlus (DE3)-RIL, purified (Glutathione Sepharose 4B), GST removed with PreScission Protease; incubated with GST-METTL9 in the absence of SAM
T1 sequence (looked up): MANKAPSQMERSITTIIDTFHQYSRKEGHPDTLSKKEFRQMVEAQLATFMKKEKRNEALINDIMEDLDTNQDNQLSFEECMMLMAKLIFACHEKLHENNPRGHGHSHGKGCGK
As to the kind of experiment: pull-down; recombinant GST-cleaved S100A9 after an in vitro methylation reaction with GST-METTL9 in the presence or the absence of SAM, then binding to GST-S100A8 (Fig. S6). The note with it: both partners purified.

The target of test [2] is T2, recombinant S100A9 prepared by cleavage of GST-S100A9, methylated in vitro by GST-METTL9 in the presence of … (mouse, UniProt P31725 1-113, Nπ-methylhistidine at His-107).
T2 construct: S100A9, mouse; methylated at His-107 by METTL9; also called de novo methylated S100A9; methylated recombinant S100A9; source: E. coli BL21-CodonPlus (DE3)-RIL, purified (Glutathione Sepharose 4B), GST removed with PreScission Protease; in vitro methylation reaction with GST-METTL9 in the presence of SAM
T2 sequence (looked up): T1 sequence (looked up)
Described as above. The note with it: both partners purified.

B1: GST-fused mouse S100A8 (natural protein, UniProt P27005 1-89, looked up)
chain: MPSELEKALSNLIDVYHNYSNIQGNHHALYKNDFKKMVTTECPQFVQNINIENLFRELDINSDNAINFEEFLAMVIKVGVASHKDSHKE
notes: S100A8, mouse; Held on glutathione beads in the pull-downs; also called GST-S100A8; mS100A8; source: E. coli BL21, purified (Glutathione Sepharose 4B)
As to B1, the binding result in test [1] and in test [2] was “binds” each time.
